In PMC5846730 one finds average apparent KD of the Val19-Glu30 and Ala49-Arg60 regions data, which are given here for one substance.

The test concerns the target GbnD4 DHD domain (Burkholderia gladioli BCC0238). The test is described as follows: NMR titration.

Take “GbnD5 apo-DH-ACP di-domain (domain or fragment)”: the average apparent KD of the Val19-Glu30 and Ala49-Arg60 regions was in the range of 7 to 15 µM.
